Source: patent publication US10975360B2, “Process for the modification of alkanes, fatty acids and fatty alcohols” (priority 2016, dated 2021)

Key:
[1] = format: cell-based, P. pastoris
Description: (§1) Precultures of P. pastoris transformants were prepared in buffered complex glycerol media (BMGY). BMGY contained: 10 g/l yeast extract, 20 g/l peptone, 3.4 g/l yeast nitrogen base, 10 g/l ammonium sulfate, 100 mM potassium phosphate (pH 6), 0.4 mg/l biotin and 1% (v/v) glycerol. Erlenmeyer flasks (500 ml) containing 50 ml BMGY media were inoculated with single colonies of 24 h old YPD-agar cultures of P. pastoris KM71 mut^s3/CYP505E3 and incubated at 30° C. and 225 rpm for 24 h. The cultures were harvested using pre-weighed centrifuge tubes at 3000 g for 5 min and stored on ice until further use.
(§2) The main cultures for expression were prepared in buffered complex methanol media (BMMY) containing 10 g/l yeast extract, 20 g/l peptone, 3.4 g/l yeast nitrogen base, 10 g/l ammonium sulfate, 100 mM potassium phosphate (pH 6), 0.4 mg/l biotin and 0.5 or 1% (v/v) methanol. Harvested cells from precultures were resuspended in BMMY media to final concentration of 1 g WC per 40 ml (appx. 25 g/l). The resuspended cultures (100 ml) were transferred to 500 ml Erlenmeyer flasks and incubated at 25° C. and 225 rpm for 24 h. The cultures were then harvested at 3000 g for 5 min using pre-weighed centrifuge tubes.
(§3) Different transformants of Pichia pastoris KM71 harbouring the CYP505 genes for SEQ ID Nos 1 to 7 and 9 to 12 were grown and harvested as described above. The harvested cells were resuspended to give 1 g wet cell weight in 40 ml MOPS buffer (200 mM, 100 mM glucose, 100 mM glycerol, pH 8) and 1 ml aliquots of these cell suspensions were transferred to 40 ml amber vials. Dodecane, 1-dodecanol and 1-tetradecanol were added neat to these cell suspensions to give final concentrations of 200 mM in the case of the alcohols and 1 M in the case of dodecane while in the case of dodecanoic acid 20 μl of a 500 mM stock solution (in DMSO) was added to give a final concentration of 10 mM. Transformants harbouring the CYP505 genes for SEQ ID Nos 1 to 4 were tested for the biotransformation of 1-dodecanol, 1-tetradecanol, dodecanoic acid, tetradecanoic acid and dodecane, while those harbouring the CYP505 genes for SEQ ID Nos 5 to 7 and 9 to 12 were only tested for the biotransformation of 1-dodecanol and dodecanoic acid. The biotransformations were incubated at 25° C. and 225 rpm for 24 h. Extractions were performed using ethyl acetate (500 μl×2). The extracts were analyzed using GC/MS.

[2] = Whole cell biotransformation of dodecane by CYP505s expressed in P. pastoris; format: cell-based; conditions: whole cells of P. pastoris
Description: as §1, §2, §3

[3] = Biotransformation of 1-hexadecanol using CFE of E. coli, Tris-HCl buffer; format: biochemical; conditions: 5 mmol/L substrate, 24 h
Description: (§4) Expression of genes in E. coli was performed by using ZYP-5052 auto-induction medium (Table 1) with in the case of the CYP 1 mM 5-aminolevulinic acid and 0.05 mM FeCl3 added. The CYP505E3 culture was cultivated using baffled flasks and incubated at 20° C. and 180 rpm for 24 h, while the GDH, and HLADH expressing cultures were all cultivated at 25° C. and 200 rpm for 24 h. Cultures were harvested through centrifugation (6 000×g, 10 min) and 1 g (wet weight) resuspended in 2 ml, 5 ml or 10 ml Tris-HCl, Phosphate or MOPS buffer, as indicated, (pH 8, 200 mM) containing 100 mM of glucose and glycerol. CFEs were obtained by a single passage of the suspended cells through a One Shot Cell Disrupter (Constant Systems) at 207 MPa. The soluble fraction was separated from unbroken cells by centrifugation (20 000×g, 20 min).
The biotransformation reaction mixture (BRM) consisted of CYP and GDH CFE suspensions prepared from cells in Tris-HCl buffers (1 g wet weight in 2 ml buffer) mixed in a 1:1 ratio with 0.1 mM NADPH added. Dodecanoic acid, tetradecanoic acid, hexadecanoic acid, 1-tetradecanol and 1-hexadecanol (20 μl of a 255 mM stock solution in DMSO) were added to 40 ml amber glass vials containing 1 ml BRM to give final substrate concentrations of 5 mmol·LBRM^−1. These vials were placed on an orbital shaker at 20° C., 200 rpm, oscillation amplitude 26 mm. […]

[4] = format: biochemical, E. coli
Description: as §4
Biotransformations of dodecane, tetradecane and hexadecane were carried using only CYP505E3 containing CFE prepared from an E. coli cell suspension (1 g wet weight in 10 ml buffer) in MOPS buffer (200 mM, pH 8) containing glucose and glycerol (100 mM each) as well as 0.1 mM NADPH. Alkane substrates (250 μL) were added to 1 mL BRM in 40 ml amber glass vials. These vials were placed on an orbital shaker at 20° C., 200 rpm, oscillation amplitude 26 mm and incubated for 24 h.

[5] = Biotransformation of C12 fatty acid using CFE of E. coli expressing CYP505E3 in different buffers; format: biochemical
Description: as §4
The biotransformation reaction mixture (BRM) consisted of CYP and GDH CFE suspensions prepared from cells in Tris-HCl, phosphate and MOPS buffers (1 g wet weight in 5 ml buffer) mixed in a 1:1 ratio with 0.1 mM NADPH added. The final CYP concentrations were 1.1, 1.3 and 1.5 μM in respectively the Tris-HCl, phosphate and MOPS buffers. Dodecanoic acid (20 μl of 255 or 510 mM fatty acid stock solution in DMSO) was added to 40 ml amber glass vials containing 1 ml BRM to give final substrate concentrations of 5 and 10 mmol·LBRM^−1. […]

B1: CYP505E3: self-sufficient cytochrome P450 monooxygenase from Aspergillus terreus, SEQ ID No 1 (protein, listed as Aspergillus terreus)
chain: MIKETEQIPGPRPLPVVGNLFDMDLEHGLECLIRLADDFGPLFQITINGEKQIFATSQALVDELCDESRFHKAVMGGLEKLRMLASDGLFTAYHGERGWGIAHRILVPAFGPLRIRNMFEEMNDVAQQLCLKWARQGSSTSINITDDFTRLTLDTIALCTMNFRLNSFYNNETMHPFVKSMLYVLRESDIQSMLPGIANCIRVKARSRMSKHIQLMRNMARGIIQERRDQAEPVDDLLNTLLNGRDPVTGEGMSDDLIINNVITFLIAGHETTSGLLSFTFYYLLQNPHILERAQNEVDEVTGGERITVQHLGRLTYIDAILKESLRLMPTAPAFTVTPKKPEVLGGAWAIDAGQAVNVLLPVCLRDRSVFGPDADEFRPERMLEENFSKLPPNSWKPFGNGERSCIGRAFAWQEAQLVVAMVLQTFDLVPDDPSYKLRIKETLTIKPDGFRVRATLRRGQSATGLSQGSMSASGATSSVASPGPPAATGAQSNPAGGQRISFFYGSNSGTCKALAHRLASSLMGRGFTEQKLAALDTVVGNLPTDQPVIIVTTSYDGRPTDDAEEFVRWLESKRPVLQGVSYAVFGCGHHDWAKTFYRIPILIDDLMHKAGATRLTALGTANAAVSDLFSDLELWEETNLLPALREAFPPSNSSDVESSEPHQLQICVSKPRRVDMHRGLVEAKVTAVRTLTSPDSPEKRHVEFHVQGDTTWRPGDHVNILPVNPLSTVSRVLAYFQLAPDHSITVNSFNTQGLPSATPVSATELFSSFVELSQPATRKNLKALAMAAESKTDEQELIRLHDSYDALVRDKRVSVLDILERFPSISLPIGIFISMLPPLRLRTYSLSMAPSFKPSHGSLTFSVINEPAWSGNGQYLGVGSNYLASLTPGSLLYLSPRPAKDAFHLPADQFNTPIIMICAGSGLAPFMGFIQERMTWLKQGRPLAKGLLFFGCRGPHLDDLYYEELSEFEDAGVVEVHRAYSRAPDDVRAKGCRHVQHRLVTEAEAVRDHWGRNAIVYVCGSSNMARGVQTVLEEILGTLPPERYVAEIF
- products produced from tetradecanoic acid (GC-MS) [1]: only 7-hydroxy tetradecanoic acid
- products produced from dodecane (GC-MS) ([2]; 1 M dodecane, 24 h): 5-dodecanol
- ω-7 hydroxylase activity C12alk ([2]; C12 alkane, GC-MS peak height): +++ (+++ 1 million < RA < 10 million)
- products detected from hexadecanol (GC-MS) [3]: did not allow detection of any products
- product from dodecane (GC-MS) [4]: 5-dodecanol
- product from tetradecane (GC-MS) [4]: 7-tetradecanol
- conversion of substrate ([5]; 5 mM dodecanoic acid, within 24 h, all buffers): almost completely converted
- δ-dodecalactone and 5-OH 12FAME as share of the total products ([5]; dodecanoic acid, CFE, Tris-HCl, phosphate or MOPS buffer pH 8): 30-35%
